Target: NS2/3 (810-1615BK): HCV residues 810-1615 of the BK strain, all of NS2 and most of NS3 (Hepatitis C virus, BK strain) (UniProt P26663)
Assay: co-immunoprecipitation with anti-HSP90 mAb 3G3; NS2/3 synthesized in reticulocyte lysate with or without 10 µM geldanamycin (small molecule)

UniProt P26663, sequence (P26663 810-1615): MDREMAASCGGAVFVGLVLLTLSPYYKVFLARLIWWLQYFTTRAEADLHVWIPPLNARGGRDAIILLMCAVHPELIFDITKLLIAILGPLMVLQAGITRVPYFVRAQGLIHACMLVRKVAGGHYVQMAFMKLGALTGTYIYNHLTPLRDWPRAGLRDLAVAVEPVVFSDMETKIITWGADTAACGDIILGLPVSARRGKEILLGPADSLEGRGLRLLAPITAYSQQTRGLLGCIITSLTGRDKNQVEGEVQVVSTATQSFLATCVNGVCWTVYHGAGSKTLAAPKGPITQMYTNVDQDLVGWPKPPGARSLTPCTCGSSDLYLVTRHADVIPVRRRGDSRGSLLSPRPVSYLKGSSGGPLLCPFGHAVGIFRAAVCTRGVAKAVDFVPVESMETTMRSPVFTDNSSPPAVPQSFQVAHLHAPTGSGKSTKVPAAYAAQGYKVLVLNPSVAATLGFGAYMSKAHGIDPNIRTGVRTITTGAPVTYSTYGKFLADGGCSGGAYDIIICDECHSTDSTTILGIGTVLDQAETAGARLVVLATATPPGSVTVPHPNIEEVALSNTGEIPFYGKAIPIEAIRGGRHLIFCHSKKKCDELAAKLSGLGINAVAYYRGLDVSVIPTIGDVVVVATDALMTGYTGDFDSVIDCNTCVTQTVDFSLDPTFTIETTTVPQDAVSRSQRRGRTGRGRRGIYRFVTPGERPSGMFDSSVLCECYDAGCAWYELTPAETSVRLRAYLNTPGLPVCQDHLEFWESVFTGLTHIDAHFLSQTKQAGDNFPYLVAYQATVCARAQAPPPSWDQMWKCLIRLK

Substance: heat shock protein 90 (HSP90) (from UniProt P30947 2-726)
- decrease of the amount of NS2/3 co-immunoprecipitated in the presence of 10 µM geldanamycin: 60%
